This is an account of results in patent US20200283478A1 (Genentech, published 2020).

Bridge positions count the residues as written; N and C are the ends. Square brackets hold non-standard residues; d marks the D form. hArg = N=C(N)NCCCC[C@H](N)C(=O)O

B1: Compound 231: Ac-ESYPGWNLV(homoR)IGLLR-NH2 (peptide)
peptide: Ac-ESYPGWNLV[hArg]IGLLR-NH2
SMILES: CC[C@H](C)[C@H](NC(=O)[C@H](CCCCNC(=N)N)NC(=O)[C@@H](NC(=O)[C@H](CC(C)C)NC(=O)[C@H](CC(N)=O)NC(=O)[C@H](Cc1c[nH]c2ccccc12)NC(=O)CNC(=O)[C@@H]1CCCN1C(=O)[C@H](Cc1ccc(O)cc1)NC(=O)[C@H](CO)NC(=O)[C@H](CCC(=O)O)NC(C)=O)C(C)C)C(=O)NCC(=O)N[C@@H](CC(C)C)C(=O)N[C@@H](CC(C)C)C(=O)N[C@@H](CCCNC(=N)N)C(N)=O
B2: Compound 227: Ac-ESFPGWNLV(homoR)IGLLR-NH2 (peptide)
peptide: Ac-ESFPGWNLV[hArg]IGLLR-NH2
SMILES: CC[C@H](C)[C@H](NC(=O)[C@H](CCCCNC(=N)N)NC(=O)[C@@H](NC(=O)[C@H](CC(C)C)NC(=O)[C@H](CC(N)=O)NC(=O)[C@H](Cc1c[nH]c2ccccc12)NC(=O)CNC(=O)[C@@H]1CCCN1C(=O)[C@H](Cc1ccccc1)NC(=O)[C@H](CO)NC(=O)[C@H](CCC(=O)O)NC(C)=O)C(C)C)C(=O)NCC(=O)N[C@@H](CC(C)C)C(=O)N[C@@H](CC(C)C)C(=O)N[C@@H](CCCNC(=N)N)C(N)=O
B3: Compound 230: Ac-DSYPGWNLV(homoR)IGLLR-NH2 (peptide)
peptide: Ac-DSYPGWNLV[hArg]IGLLR-NH2
SMILES: CC[C@H](C)[C@H](NC(=O)[C@H](CCCCNC(=N)N)NC(=O)[C@@H](NC(=O)[C@H](CC(C)C)NC(=O)[C@H](CC(N)=O)NC(=O)[C@H](Cc1c[nH]c2ccccc12)NC(=O)CNC(=O)[C@@H]1CCCN1C(=O)[C@H](Cc1ccc(O)cc1)NC(=O)[C@H](CO)NC(=O)[C@H](CC(=O)O)NC(C)=O)C(C)C)C(=O)NCC(=O)N[C@@H](CC(C)C)C(=O)N[C@@H](CC(C)C)C(=O)N[C@@H](CCCNC(=N)N)C(N)=O
B4: Compound 229: Ac-MESFPGWNLV(homoR)IGLLR-NH2 (peptide)
peptide: Ac-MESFPGWNLV[hArg]IGLLR-NH2
SMILES: CC[C@H](C)[C@H](NC(=O)[C@H](CCCCNC(=N)N)NC(=O)[C@@H](NC(=O)[C@H](CC(C)C)NC(=O)[C@H](CC(N)=O)NC(=O)[C@H](Cc1c[nH]c2ccccc12)NC(=O)CNC(=O)[C@@H]1CCCN1C(=O)[C@H](Cc1ccccc1)NC(=O)[C@H](CO)NC(=O)[C@H](CCC(=O)O)NC(=O)[C@H](CCSC)NC(C)=O)C(C)C)C(=O)NCC(=O)N[C@@H](CC(C)C)C(=O)N[C@@H](CC(C)C)C(=O)N[C@@H](CCCNC(=N)N)C(N)=O
B5: Compound 228: Ac-SFAFPGWNLV(homoR)IGLLR-NH2 (peptide)
peptide: Ac-SFAFPGWNLV[hArg]IGLLR-NH2
SMILES: CC[C@H](C)[C@H](NC(=O)[C@H](CCCCNC(=N)N)NC(=O)[C@@H](NC(=O)[C@H](CC(C)C)NC(=O)[C@H](CC(N)=O)NC(=O)[C@H](Cc1c[nH]c2ccccc12)NC(=O)CNC(=O)[C@@H]1CCCN1C(=O)[C@H](Cc1ccccc1)NC(=O)[C@H](C)NC(=O)[C@H](Cc1ccccc1)NC(=O)[C@H](CO)NC(C)=O)C(C)C)C(=O)NCC(=O)N[C@@H](CC(C)C)C(=O)N[C@@H](CC(C)C)C(=O)N[C@@H](CCCNC(=N)N)C(N)=O

T1 sequence (Q8NBP7 31-152, stated change not applied, chain 1 of 2): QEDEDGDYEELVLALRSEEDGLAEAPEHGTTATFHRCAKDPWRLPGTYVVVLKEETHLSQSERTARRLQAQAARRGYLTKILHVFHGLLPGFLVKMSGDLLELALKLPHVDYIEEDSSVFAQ
T1 sequence (Q8NBP7 other isoform, or with tags, fused parts or gaps mutant, chain 2 of 2): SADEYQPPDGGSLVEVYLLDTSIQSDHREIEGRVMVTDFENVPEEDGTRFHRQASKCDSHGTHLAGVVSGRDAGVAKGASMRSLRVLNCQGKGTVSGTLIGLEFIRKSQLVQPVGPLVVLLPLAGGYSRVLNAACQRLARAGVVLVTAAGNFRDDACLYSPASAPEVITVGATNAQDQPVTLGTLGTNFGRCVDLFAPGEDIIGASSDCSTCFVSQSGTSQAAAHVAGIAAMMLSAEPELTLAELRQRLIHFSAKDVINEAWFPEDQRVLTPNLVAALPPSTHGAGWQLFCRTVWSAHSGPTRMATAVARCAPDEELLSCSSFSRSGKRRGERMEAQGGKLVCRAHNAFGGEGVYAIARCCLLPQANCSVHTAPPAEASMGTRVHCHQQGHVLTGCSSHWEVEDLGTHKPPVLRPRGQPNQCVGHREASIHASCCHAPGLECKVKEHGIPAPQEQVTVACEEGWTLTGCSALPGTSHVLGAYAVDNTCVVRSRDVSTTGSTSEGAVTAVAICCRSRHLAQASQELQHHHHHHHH
T2 sequence (Q8NBP7 31-692 limits assumed): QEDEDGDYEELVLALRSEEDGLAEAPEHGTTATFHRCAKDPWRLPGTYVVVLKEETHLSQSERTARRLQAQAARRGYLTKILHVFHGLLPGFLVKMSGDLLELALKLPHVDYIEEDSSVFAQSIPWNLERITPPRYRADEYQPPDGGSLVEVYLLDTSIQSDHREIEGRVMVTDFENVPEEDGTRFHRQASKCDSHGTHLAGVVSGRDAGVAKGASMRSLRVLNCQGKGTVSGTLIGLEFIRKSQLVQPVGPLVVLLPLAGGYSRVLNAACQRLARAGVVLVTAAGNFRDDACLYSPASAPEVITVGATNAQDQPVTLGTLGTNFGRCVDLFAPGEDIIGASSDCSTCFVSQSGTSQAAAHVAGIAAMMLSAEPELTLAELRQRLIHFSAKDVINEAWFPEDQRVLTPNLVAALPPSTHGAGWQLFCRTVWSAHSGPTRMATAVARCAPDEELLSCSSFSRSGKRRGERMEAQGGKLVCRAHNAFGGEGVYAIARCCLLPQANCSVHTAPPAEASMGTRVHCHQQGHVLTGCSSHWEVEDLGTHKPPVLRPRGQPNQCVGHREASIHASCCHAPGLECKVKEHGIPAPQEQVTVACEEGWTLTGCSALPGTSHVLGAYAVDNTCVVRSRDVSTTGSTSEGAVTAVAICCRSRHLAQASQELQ

One assay has as its target T1, PCSK9Δhelix (human PCSK9 lacking the P' helix, His-tagged) (human, UniProt Q8NBP7 31-152; Q8NBP7 168-692).
T1 construct: Construct M1-Q692 with an engineered TEV site (Y166 and R167 deleted, ENLYFQS inserted between R165 and A168); also called His-PCSK9Δhelix; C-terminal (His)8-tagged PCSK9Δhelix
Briefly: TR-FRET competition; His-PCSK9Δhelix with Ab20 as competitor ligand.
Ac-WNLV[hArg]IGLLR-NH2 [Compound 192: Ac-WNLV(homoR)IGLLR-NH2]: the IC50 was 5.6 µM.
The same measure, in the same setting: for Ac-WNLVRIGLLR-NH2 [Compound 53: Ac-WNLVRIGLLR-NH2] the value was 52.4 µM.
The same measure, in the same setting: for Ac-LMPWNLVRIGLLR-NH2 [Compound 50: Ac-LMPWNLVRIGLLR-NH2] the value was 3.6 µM; for Ac-DLMPWNLVRIGLLR-NH2 [Compound 35: Ac-DLMPWNLVRIGLLR-NH2], 7.9 µM.
Same read-out and setting: for Ac-MPWNLVRIGLLR-NH2 [Compound 51: Ac-MPWNLVRIGLLR-NH2] the value was 6.6 µM; for Ac-PWNLVRIGLLR-NH2 [Compound 52: Ac-PWNLVRIGLLR-NH2], 15.9 µM.

Another assay addresses T2, PCSK9 (proprotein convertase subtilisin/kexin type 9), His-tagged, full-length (human, UniProt Q8NBP7 31-692).
T2 construct: Captured by the His tag (SPR Methods 1 and 2), amine-coupled (Method 3), or His-tagged in TR-FRET; also called His-PCSK9
Briefly: TR-FRET competition; competitor EGF(A)-Fc binding to His-PCSK9.
In turn, Ac-TVFTSWEEYLDWVGGSGCWNLKRIGSQGC-NH2 (disulfide 18-29 (inferred), Two Cys, disulfide-cyclized) [Compound 13] registered an IC50 of 0.01 µM.
Same read-out and setting: as for Ac-TVFTSWEEYLDWVGSGGCWNLKRIGSQGC-NH2 (disulfide 18-29 (inferred), Two Cys, disulfide-cyclized) [Compound 14], the figure is 0.009 µM; as for Ac-TVFTSWEEYLDWVGSGGCRLPWNLQRIGLPC-NH2 (disulfide 18-31 (inferred), Two Cys, disulfide-cyclized) [Compound 25], 0.781 µM.
Same read-out and setting: for Ac-TVFTSWEEYLDWVGSGGCFLPWNLQRIGLLC-NH2 (disulfide 18-31 (inferred), Two Cys, disulfide-cyclized) [Compound 38] the value was 0.471 µM.
In turn, Ac-TVFTSWEEYLDWVGSGCWNLGRIGSQGC-NH2 (disulfide 17-28 (inferred), Two Cys, disulfide-cyclized) [Compound 11] gave an IC50 of 0.34 µM.
Same read-out and setting: as for Ac-TVFTSWEEYLDWVGSGCWNLKRVGSQGC-NH2 (disulfide 17-28 (inferred), Two Cys, disulfide-cyclized) [Compound 12], the figure is 0.19 µM.

For another assay, the target named is T3, PCSK9Δhelix (human, UniProt Q8NBP7 31-152; Q8NBP7 168-692).
T3 construct: Made by TEV cleavage of human PCSK9 M1-Q692 with an engineered TEV site; The new N-terminus of the catalytic domain is S-A168; also called His-PCSK9Δhelix; PCSK9 lacking the P' helix
T3 sequence (Q8NBP7 31-152, stated change not applied, chain 1 of 2): as the sequence (Q8NBP7 31-152, stated change not applied, chain 1 of 2) above
T3 sequence (Q8NBP7 other isoform, or with tags, fused parts or gaps mutant, chain 2 of 2): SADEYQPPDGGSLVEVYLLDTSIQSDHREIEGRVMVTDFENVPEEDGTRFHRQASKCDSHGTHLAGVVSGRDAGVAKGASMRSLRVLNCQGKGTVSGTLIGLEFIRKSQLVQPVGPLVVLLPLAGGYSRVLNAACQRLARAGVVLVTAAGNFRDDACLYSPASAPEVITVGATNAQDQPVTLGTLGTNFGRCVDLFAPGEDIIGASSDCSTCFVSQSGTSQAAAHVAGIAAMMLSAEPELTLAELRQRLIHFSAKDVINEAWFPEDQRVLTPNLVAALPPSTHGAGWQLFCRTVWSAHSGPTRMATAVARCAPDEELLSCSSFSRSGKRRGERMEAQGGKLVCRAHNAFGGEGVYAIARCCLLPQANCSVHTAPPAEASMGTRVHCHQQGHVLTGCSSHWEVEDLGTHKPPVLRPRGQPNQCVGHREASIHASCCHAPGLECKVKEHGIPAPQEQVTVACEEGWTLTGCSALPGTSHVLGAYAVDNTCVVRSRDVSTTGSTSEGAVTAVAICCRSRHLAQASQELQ
The assay is described as follows: TR-FRET competition; competitor Ab20 binding to His-PCSK9Δhelix.
Ac-TVFTSWEEYLDWVGSGDLMPWNLVRIGLLR-NH2 (also called Pep2-8p7; Pep2-8_K9gvpep7) [Compound 20] returned an IC50 of 0.001 µM.
Still for that read-out and setting: as for Ac-TVFTSWEEYLDWVGGSGKLWNLGRV-NH2 [Compound 8], the figure is 0.049 µM; as for Ac-TVFTSWEEYLDWVGSGGKLWNLGRV-NH2 [Compound 9], 0.065 µM.
The same measure, in the same setting: for Ac-TVFTSWEEYLDWVGSGKLWN-NH2 [Compound 7] the value was 18.6 µM.

For a further assay, the target named is T2, PCSK9 (proprotein convertase …). Briefly: TR-FRET competition; competitor EGF(A)-Fc binding to His-PCSK9. This is another data set of the same source.
Turning to Ac-TVFTSWEEYLDWVGSGDLMPWNLVRIGLLR-NH2 (also called Pep2-8p7; Pep2-8_K9gvpep7) [Compound 20], the IC50 worked out at 0.037 µM.
Still for that read-out and setting: for Ac-TVFTSWEEYLDWVGGSGKLWNLGRV-NH2 [Compound 8] the value was 1.03 µM; for Ac-TVFTSWEEYLDWVGSGGKLWNLGRV-NH2 [Compound 9], 0.39 µM.
On the same count and under the same terms, as for Ac-TVFTSWEEYLDWVGSGKLWN-NH2 [Compound 7], the figure is 0.5 µM.

Another assay deals with T4, His-tagged, full-length human PCSK9 (proprotein convertase subtilisin/kexin type 9) (human, UniProt A8T644 31-152; Q8NBP7 153-692).
T4 construct: also called His-PCSK9; C-terminal (His)8-tagged PCSK9
T4 sequence (A8T644 31-152, chain 1 of 2): as the sequence (Q8NBP7 31-152, stated change not applied, chain 1 of 2) above
T4 sequence (A8T644 other isoform, or with tags, fused parts or gaps, chain 2 of 2): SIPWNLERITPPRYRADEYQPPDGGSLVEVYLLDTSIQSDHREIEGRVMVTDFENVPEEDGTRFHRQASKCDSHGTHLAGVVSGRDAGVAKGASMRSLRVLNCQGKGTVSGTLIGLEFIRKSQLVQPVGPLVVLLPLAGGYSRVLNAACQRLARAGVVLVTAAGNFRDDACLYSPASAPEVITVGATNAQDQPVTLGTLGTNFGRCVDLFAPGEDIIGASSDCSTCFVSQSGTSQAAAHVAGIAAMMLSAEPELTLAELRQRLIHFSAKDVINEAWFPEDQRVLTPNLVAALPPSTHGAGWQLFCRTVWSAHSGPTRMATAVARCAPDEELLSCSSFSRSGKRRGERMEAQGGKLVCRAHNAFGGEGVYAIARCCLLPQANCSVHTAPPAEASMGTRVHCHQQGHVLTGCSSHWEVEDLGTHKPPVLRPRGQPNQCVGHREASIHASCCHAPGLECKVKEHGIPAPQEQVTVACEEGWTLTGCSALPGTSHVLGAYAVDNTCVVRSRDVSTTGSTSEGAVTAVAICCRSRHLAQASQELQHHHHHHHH
Briefly: TR-FRET competition; His-PCSK9 with LDLR-Fc as competitor ligand.
For B1, the IC50 was more than 50 µM.
Molecule B2 displayed an IC50 of more than 50 µM.
Still for that read-out and setting: for B3 the value was more than 50 µM; for Ac-WNLV[hArg]IGLLR-NH2 [Compound 192: Ac-WNLV(homoR)IGLLR-NH2], more than 50 µM.
For the molecule B4, the IC50 stood at 25 µM.
Still for that read-out and setting: for B5 the value was 30.4 µM.

Another assay deals with T3, PCSK9Δhelix. Briefly: SPR, Method 1 (Biacore T100, His-tagged target captured on NTA chip).
SGDLMPWNLVRIGLLR (Free N- and C-termini as printed) [Compound 28] returned a Kd of 0.856 µM.
On the same count and under the same terms, as for Ac-TVFTSWEEYLDWVGSGDLMPWNLVRIGLLR-NH2 (also called Pep2-8p7; Pep2-8_K9gvpep7) [Compound 20], the figure is 0.000366 µM.
H-SGCFIPWNLQRIGLLC-NH2 (disulfide 3-16 (inferred), Two Cys, disulfide-cyclized) [Compound 26] yielded a Kd of 0.802 µM.

The target in another assay is T2, PCSK9 (proprotein convertase …). The description is as above.
Take SGDLMPWNLVRIGLLR (Free N- and C-termini as printed) [Compound 28]: the Kd is 46.1 µM.
As for Ac-TVFTSWEEYLDWVGSGDLMPWNLVRIGLLR-NH2 (also called Pep2-8p7; Pep2-8_K9gvpep7) [Compound 20], the Kd is 0.00556 µM.
The same measure, in the same setting: as for H-SGCFIPWNLQRIGLLC-NH2 (disulfide 3-16 (inferred), Two Cys, disulfide-cyclized) [Compound 26], the figure is 29 µM.

The target in another assay is T4, His-tagged, full-length human PCSK9 …. The assay is described as follows: TR-FRET competition; His-PCSK9 with EGF(A)-Fc as competitor ligand.
In turn, B1 returned an IC50 of 15.8 µM.
B2 displayed an IC50 of 23.2 µM.
The same measure, in the same setting: as for B3, the figure is 24.2 µM; as for Ac-WNLV[hArg]IGLLR-NH2 [Compound 192: Ac-WNLV(homoR)IGLLR-NH2], more than 50 µM.
The same measure, in the same setting: for B4 the value was 8.3 µM.
The molecule B5 came in with an IC50 of 13.2 µM.

Another assay addresses T1, PCSK9Δhelix (human PCSK9 lacking the P' …). The assay is described as follows: TR-FRET competition; His-PCSK9Δhelix with Ab20 as competitor ligand. This is another data set of the same source.
As for B1, the IC50 was determined as 1.49 µM.
B2 had an IC50 of 2.51 µM.
On the same count and under the same terms, for B3 the value was 2.42 µM.
Ac-WNLV[hArg]IGLLR-NH2 [Compound 192: Ac-WNLV(homoR)IGLLR-NH2]: the IC50 was 5.55 µM.
The same measure, in the same setting: as for B4, the figure is 0.84 µM.
Same read-out and setting: as for B5, the figure is 1.37 µM.

For another assay the target is unchanged. Briefly: SPR (Biacore), His-tagged PCSK9Δhelix captured on NTA chip.
Ac-WNLV[hArg]IGLLR-NH2 [Compound 192: Ac-WNLV(homoR)IGLLR-NH2] registered a Kd of 1 µM.
The same measure, in the same setting: for Ac-WNLVRIGLLR-NH2 [Compound 53: Ac-WNLVRIGLLR-NH2] the value was 14 µM.
On the same count and under the same terms, for Ac-LMPWNLVRIGLLR-NH2 [Compound 50: Ac-LMPWNLVRIGLLR-NH2] the value was 0.47 µM.
On the same count and under the same terms, as for Ac-DLMPWNLVRIGLLR-NH2 [Compound 35: Ac-DLMPWNLVRIGLLR-NH2], the figure is 1.38 µM; as for Ac-MPWNLVRIGLLR-NH2 [Compound 51: Ac-MPWNLVRIGLLR-NH2], 1.4 µM; as for Ac-PWNLVRIGLLR-NH2 [Compound 52: Ac-PWNLVRIGLLR-NH2], 2.1 µM.

In the next assay the target is T3, PCSK9Δhelix. Briefly: TR-FRET competition; competitor Ab20 binding to His-PCSK9Δhelix. The source holds these as a separate data set.
In turn, Ac-TVFTSWEEYLDWVGGSGCWNLKRIGSQGC-NH2 (disulfide 18-29 (inferred), Two Cys, disulfide-cyclized) [Compound 13] came in with an IC50 of 0.001 µM.
On the same count and under the same terms, for Ac-TVFTSWEEYLDWVGSGGCWNLKRIGSQGC-NH2 (disulfide 18-29 (inferred), Two Cys, disulfide-cyclized) [Compound 14] the value was 0.001 µM; for Ac-TVFTSWEEYLDWVGSGGCRLPWNLQRIGLPC-NH2 (disulfide 18-31 (inferred), Two Cys, disulfide-cyclized) [Compound 25], 0.083 µM; for Ac-TVFTSWEEYLDWVGSGGCFLPWNLQRIGLLC-NH2 (disulfide 18-31 (inferred), Two Cys, disulfide-cyclized) [Compound 38], 0.003 µM.
